These results are taken from patent publication US20180066015A1, “INHIBITORS OF GROWTH FACTOR ACTIVATION ENZYMES” (Washington University, published 2018).

In general, Ki refers to the equilibrium dissociation constant of an inhibitor or competing ligand from its target.

Where “and” joins values, the source holds several entries; their conditions need not be identical. Identical values can stand only once. Primed or numbered codes have the meaning given here. *: point of attachment. ketothiazole = C-terminal ketothiazole (kt), c1csc(*)n1; kt = C-terminal ketothiazole, c1csc(*)n1; kt″ = ketothiazole, c1csc(*)n1

Experiment [1] addresses Hepatocyte Growth Factor Activator (HGFA) serine protease domain, N-terminal His-tag, recombinant (Homo sapiens (Human)) (UniProt Q04756).
The target is the same in experiment [2]. The experiment in a line: fluorogenic inhibition assay.
For a further experiment, the target named is Factor Xa. Nature of the experiment: chromogenic inhibition assay.
The target of the next experiment is recombinant thrombin. Nature of the experiment: chromogenic inhibition assay.
For experiment [3], the target named is T1, matriptase (Charles Craik, UCSF), recombinant (Homo sapiens (Human), UniProt Q9Y5Y6).
T1 sequence: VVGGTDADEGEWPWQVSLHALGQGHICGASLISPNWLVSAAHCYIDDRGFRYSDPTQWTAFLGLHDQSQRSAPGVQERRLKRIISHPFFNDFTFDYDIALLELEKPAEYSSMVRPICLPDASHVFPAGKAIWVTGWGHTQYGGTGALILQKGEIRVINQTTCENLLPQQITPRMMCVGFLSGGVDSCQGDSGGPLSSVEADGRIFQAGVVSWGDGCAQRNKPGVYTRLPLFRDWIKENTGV
Nature of the experiment: fluorogenic inhibition assay. As for the experimental part:
(§1) Inhibitors (11-pt serial dilutions, 0-20 μM final concentration in reaction) were serially diluted in DMSO (2% DMSO final concentration) and then mixed with either recombinant serine protease domain of HGFA [Z. Han, P. K. Harris, D. E. Jones, R. Chugani, T. Kim, M. Agarwal, W. Shen, S. A. Wildman, J. W. Janetka, Acs Med Chem Lett 2014, 5, 1219-1224], matriptase (Charles Craik, UCSF) or hepsin* (#4776-SE-010, R&D Systems, Minneapolis, Minn.) in black 384 well plates (Corning #3575. Corning, N.Y.). […] The final substrate concentrations for all assays were at the Kₘ for the respective enzymes. Changes in fluorescence (excitation at 380 nm and emission at 460 nm) were measured at room temperature over time in a Biotek Synergy 2 plate reader (Winnoski, Vt.). Using GraphPad Prism version 6.04 software program, (GraphPad Software, San Diego, Calif., www.graphpad.com), a four parameter curve fit was used to determine the inhibitor IC₅₀s from a plot of the mean reaction velocity versus the inhibitor concentration. The IC₅₀ values represent the average of three separate experimental determinations.

The target in experiment [4] is Recombinant human hepsin (4776-SE-010, R&D Systems), activated (human, UniProt P05981). Nature of the experiment: fluorogenic inhibition assay. The method, then:
as §1

Experiment [5] has as its target Recombinant human hepsin (4776-SE-010, R&D Systems), activated (human) (UniProt P05981).
The target of experiment [6] is T2, matriptase (Charles Craik, UCSF), recombinant (Homo sapiens (Human)) (UniProt Q9Y5Y6).
T2 sequence: T1 sequence

For Ac-KQFR(SEQ ID NO: 4)-kt (peptide), in experiment [1], the IC50 of enzyme inhibition was 470 nM. Also, the Ki in experiment [2] is 58 nM; with Factor Xa, 78.8 nM; with recombinant thrombin, over 20000 nM.

B1: Ac-SHLR(SEQ ID NO: 11)-kt (peptide)
peptide: Ac-SHLR-kt
SMILES: CC(=O)N[C@@H](CO)C(=O)N[C@@H](Cc1c[nH]cn1)C(=O)N[C@@H](CC(C)C)C(=O)N[C@@H](CCCNC(=N)N)C(=O)c1nccs1
In the case of B1, the Ki is 104 nM in experiment [3], 0.6 nM in experiment [4] and 332 nM in experiment [2]. In addition, the IC50 of enzyme inhibition in experiment [5] was 5 nM; in experiment [1], 1800 nM; in experiment [6] it was 560 nM.

B2: Ac-SKFR(SEQ ID NO: 13)-kt (peptide)
peptide: Ac-SKFR-kt
SMILES: CC(=O)N[C@@H](CO)C(=O)N[C@@H](CCCCN)C(=O)N[C@@H](Cc1ccccc1)C(=O)N[C@@H](CCCNC(=N)N)C(=O)c1nccs1
In the case of B2, the Ki is 3.03 nM in experiment [3]; 8.5 nM in experiment [4]; 57 nM in experiment [2]; 530 nM in the experiment with Factor Xa; over 2000 nM in the experiment with recombinant thrombin. Also, the results for the IC50 of enzyme inhibition in experiment [5], in experiment [1] and in experiment [6] were 51 nM, 520 nM and 34 nM, respectively.

B3: Ac-KHLR(SEQ ID NO: 2)-kt (peptide)
peptide: Ac-KHLR-{kt″}
SMILES: CC(=O)N[C@@H](CCCCN)C(=O)N[C@@H](Cc1c[nH]cn1)C(=O)N[C@@H](CC(C)C)C(=O)N[C@@H](CCCNC(=N)N)C(=O)c1nccs1
In the case of B3, the Ki in experiment [3] came to 22.3 nM; in experiment [4], 0.41 nM; in experiment [2] it was 96 nM. The IC50 of enzyme inhibition in experiment [1] is 650 nM.

B4: Ac-NKLR(SEQ ID NO: 14)-kt (peptide)
peptide: Ac-NKLR-kt
SMILES: CC(=O)N[C@@H](CC(N)=O)C(=O)N[C@@H](CCCCN)C(=O)N[C@@H](CC(C)C)C(=O)N[C@@H](CCCNC(=N)N)C(=O)c1nccs1
Take B4: the Ki in experiment [3] was 12 nM and 12.4 nM; in experiment [4] it was 1.4 nM and 1.41 nM; in experiment [2], 79 nM. Further, the IC50 of enzyme inhibition in experiment [1] is 397 nM and 400 nM.

B5: Ac-WKLR(SEQ ID NO: 12)-kt (peptide)
peptide: Ac-WKLR-kt
SMILES: CC(=O)N[C@@H](Cc1c[nH]c2ccccc12)C(=O)N[C@@H](CCCCN)C(=O)N[C@@H](CC(C)C)C(=O)N[C@@H](CCCNC(=N)N)C(=O)c1nccs1
In the case of B5, the figures for the Ki in experiment [3], in experiment [4] and in experiment [2] were 8.6 nM, 0.55 nM and 56 nM, respectively. In addition, the IC50 of enzyme inhibition in experiment [5] came to 4 nM; in experiment [1], 320 nM; in experiment [6], 97 nM.

B6: Ac-SKLR(SEQ ID NO: 10)-kt (peptide)
peptide: Ac-SKLR-kt
SMILES: CC(=O)N[C@@H](CO)C(=O)N[C@@H](CCCCN)C(=O)N[C@@H](CC(C)C)C(=O)N[C@@H](CCCNC(=N)N)C(=O)c1nccs1
Regarding B6, the Ki in experiment [3] was 58 nM; in experiment [4], 1.2 nM; in experiment [2] it was 81 nM; with Factor Xa, 3060 nM; with recombinant thrombin, over 20000 nM. Further, the IC50 of enzyme inhibition was determined as 560 nM in experiment [1] and 48 nM in experiment [6].

B7: Ac-SRLR(SEQ ID NO: 15)-kt (peptide)
peptide: Ac-SRLR-kt
SMILES: CC(=O)N[C@@H](CO)C(=O)N[C@@H](CCCNC(=N)N)C(=O)N[C@@H](CC(C)C)C(=O)N[C@@H](CCCNC(=N)N)C(=O)c1nccs1
For B7, the Ki came out at 5.8 nM in experiment [3], 0.68 nM in experiment [4] and 24 nM in experiment [2]. For the same molecule, the results for the IC50 of enzyme inhibition in experiment [5], in experiment [1] and in experiment [6] were 5 nM, 303 nM and 24 nM, respectively.

B8: Ac-TKLR(SEQ ID NO: 16)-kt (peptide)
peptide: Ac-TKLR-kt
SMILES: CC(=O)N[C@H](C(=O)N[C@@H](CCCCN)C(=O)N[C@@H](CC(C)C)C(=O)N[C@@H](CCCNC(=N)N)C(=O)c1nccs1)[C@@H](C)O
With B8, the Ki in experiment [3] stood at 8.7 nM; in experiment [4], 0.61 nM; in experiment [2], 103 nM. Besides, the IC50 of enzyme inhibition in experiment [1] came to 567 nM.

B9: Ac-RKLR(SEQ ID NO: 18)-kt (peptide)
peptide: Ac-RKLR-kt
SMILES: CC(=O)N[C@@H](CCCNC(=N)N)C(=O)N[C@@H](CCCCN)C(=O)N[C@@H](CC(C)C)C(=O)N[C@@H](CCCNC(=N)N)C(=O)c1nccs1
Regarding B9, the Ki in experiment [3] stood at 0.83 nM; in experiment [4] it was 0.47 nM; in experiment [2] it was 17 nM. Further, the IC50 of enzyme inhibition in experiment [1] is 370 nM.

B10: Ac-SQLR(SEQ ID NO: 7)-kt (peptide)
peptide: Ac-SQLR-kt
SMILES: CC(=O)N[C@@H](CO)C(=O)N[C@@H](CCC(N)=O)C(=O)N[C@@H](CC(C)C)C(=O)N[C@@H](CCCNC(=N)N)C(=O)c1nccs1
With B10, the Ki in experiment [3] is 9.2 nM; in experiment [4] it was 0.34 nM; in experiment [2], 182 nM. Further, the IC50 of enzyme inhibition in experiment [1] turned out to be 180 nM.

As to Ac-Leu-Leu-Arg-kt [Ac-LLR-kt], the inhibitory constant (Ki) is 2.29 nM in experiment [4] and 253 nM in experiment [2]. The IC50 of enzyme inhibition in experiment [1] was 1480 nM.

B11: Ac-WQLR(SEQ ID NO: 3)-kt (peptide)
peptide: Ac-WQLR-kt
SMILES: CC(=O)N[C@@H](Cc1c[nH]c2ccccc12)C(=O)N[C@@H](CCC(N)=O)C(=O)N[C@@H](CC(C)C)C(=O)N[C@@H](CCCNC(=N)N)C(=O)c1nccs1
Consider B11, for which the Ki came out at 32.4 nM in experiment [3], 0.21 nM in experiment [4] and 65 nM in experiment [2]. In addition, the IC50 of enzyme inhibition in experiment [5] amounted to 1 nM; in experiment [1], 471 nM; in experiment [6], 49 nM.

Regarding LLR (N-terminal acetyl; C-terminus printed as -H) [Leupeptin (Ac-LLR-H)], the Ki was determined as 696 nM in experiment [3], 61 nM in experiment [4] and 188 nM in experiment [2]. For the same molecule, the IC50 of enzyme inhibition came out at 256 nM in experiment [5], 535 nM in experiment [1] and 1150 nM in experiment [6].

B12: Ac-RQLR(SEQ ID NO: 6)-kt (peptide)
peptide: Ac-RQLR-kt
SMILES: CC(=O)N[C@@H](CCCNC(=N)N)C(=O)N[C@@H](CCC(N)=O)C(=O)N[C@@H](CC(C)C)C(=O)N[C@@H](CCCNC(=N)N)C(=O)c1nccs1
Regarding B12, the Ki was 0.32 nM in experiment [3]; 0.28 nM in experiment [4]; 60 nM in experiment [2]; 8.1 nM in the experiment with Factor Xa; over 20000 nM in the experiment with recombinant thrombin. Also, the IC50 of enzyme inhibition was determined as 1 nM in experiment [5], 270 nM in experiment [1] and 1 nM in experiment [6].

B13: Ac-WRLR(SEQ ID NO: 9)-kt (peptide)
peptide: Ac-WRLR-kt
SMILES: CC(=O)N[C@@H](Cc1c[nH]c2ccccc12)C(=O)N[C@@H](CCCNC(=N)N)C(=O)N[C@@H](CC(C)C)C(=O)N[C@@H](CCCNC(=N)N)C(=O)c1nccs1
For the molecule B13, the Ki was found to be 5.5 nM in experiment [3], 0.21 nM in experiment [4] and 21 nM in experiment [2]. Also, the IC50 of enzyme inhibition was 0.3 nM in experiment [5], 275 nM in experiment [1] and 31 nM in experiment [6].

B14: Ac-KFLR(SEQ ID NO: 5)-kt (peptide)
peptide: Ac-KFLR-ketothiazole
SMILES: CC(=O)N[C@@H](CCCCN)C(=O)N[C@@H](Cc1ccccc1)C(=O)N[C@@H](CC(C)C)C(=O)N[C@@H](CCCNC(=N)N)C(=O)c1nccs1
With B14, the IC50 of enzyme inhibition came to 22 nM in experiment [5], 330 nM in experiment [1] and 35 nM in experiment [6]. Further, the Ki in experiment [2] is 80 nM.
